For one substance, self-association of tirzepatide results are on record in patent publication US20260130970A1, “PRESERVED GIP/GLP AGONIST COMPOSITIONS” (ELI LILLY AND COMPANY, priority 2022, published 2026).

A short description of this data set: Light scattering of tirzepatide samples (apparent weight-average molecular weight, self-association). Type of data set: physicochemical. The settings on record: Mounjaro™ matrix (5 mM phosphate buffer, 140 mM NaCl, pH=7.0), 5 mg/mL to 30 mg/mL. The procedure:
Tirzepatide formulations were prepared for light scattering measurements, with compositions detailed in Tables 1.a and 1.b. Light scattering data were collected using an ALV-CGS3 goniometer-based light scattering instrument (ALV-GmbH, Langen, Germany), which is a self-contained system with 22 mW 633 nm HeNe laser. Samples were filtered into disposable glass tubes using appropriate filters. Corresponding drug product placebos were used as scattering blanks. A single 15- or 30-second-long acquisition at 90-degree scattering angle was collected per sample, using the dynamic light scattering (DLS) mode. The resulting DLS auto-correlation functions were analyzed using intensity-weighted regularized size distributions, and shown to be monomodal before proceeding. The time-averaged scattering intensity values of the samples, placebos and toluene were used to calculate the excess Rayleigh ratios.
Apparent weight-average molecular weight (WAMW) values were calculated using formula (1):
[formula] • where K is an optical constant, c is the peptide mass concentration, and R is the excess Rayleigh ratio. A refractive index increment (dn/dc) of 0.185 mL/g was assumed.
To study the effect of preservatives, m-cresol, phenol or benzyl alcohol at selected concentrations were added to a standard Mounjaro™ composition. […]

Take tirzepatide: the self-association of tirzepatide result was “monomer-trimer-hexamer equilibrium”.
